In IntAct's records for PubMed 11264384:

Target: nef_hv1a2 nef (UniProt P03407)
Sequence (P03407 whole entry): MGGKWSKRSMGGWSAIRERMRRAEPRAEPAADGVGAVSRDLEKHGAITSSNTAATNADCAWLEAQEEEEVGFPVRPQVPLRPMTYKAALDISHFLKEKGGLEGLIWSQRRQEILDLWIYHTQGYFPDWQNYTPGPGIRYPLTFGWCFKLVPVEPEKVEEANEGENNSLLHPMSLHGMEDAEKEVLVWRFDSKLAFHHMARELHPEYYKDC

With “T-cell surface glycoprotein CD4 (Homo sapiens) (from UniProt P01730) L438A;L439A” the “effect of a mutation on the interaction” value was “disrupting interaction strength”.
